Our source for the inhibition of HMGB1 (1 µg/ml) induced TNF release from RAW 264.7 cells, apparent EC50, maximum inhibition of HMG-1 signaling (TNF release from RAW 264.7 cells) by anti-RAGE antibody and total counts obtained in the absence of unlabeled HMGB1 proteins (CPM/well) values is patent US7304034.

Experiment [1] concerns the target cell surface binding sites for HMGB1 on RAW 264.7 cells. Briefly: cell-based or functional assay.
For experiment [2], the target named is RAGE on RAW 264.7 cells (mouse (murine RAW 264.7 cells)) (UniProt Q62151). Briefly: cell-based or functional assay.
Sequence of RAGE on RAW 264.7 cells (mouse (murine RAW 264.7 cells)) (Q62151 23-402): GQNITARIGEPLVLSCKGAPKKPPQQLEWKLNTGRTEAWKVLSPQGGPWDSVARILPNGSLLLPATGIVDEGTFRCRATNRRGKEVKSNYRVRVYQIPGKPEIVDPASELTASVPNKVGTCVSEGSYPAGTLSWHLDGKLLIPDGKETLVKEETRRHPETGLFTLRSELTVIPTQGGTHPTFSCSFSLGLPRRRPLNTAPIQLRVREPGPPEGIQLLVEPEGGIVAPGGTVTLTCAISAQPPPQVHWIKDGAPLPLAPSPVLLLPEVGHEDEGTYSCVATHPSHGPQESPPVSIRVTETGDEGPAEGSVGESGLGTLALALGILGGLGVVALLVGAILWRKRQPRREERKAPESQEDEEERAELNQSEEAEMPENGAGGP
Experiment [3] has as its target cell surface binding sites for HMGB1 on RAW 264.7 cells. Briefly: 125I-HMGB1 cell surface binding to RAW 264.7 cells, 2 hours at 4 C, no competitor.

In the case of “HMGB1 A box (Amino terminus + A Box mutant of human HMGB1) (from UniProt A9RA84 1-85)”, the inhibition of HMGB1 (1 µg/ml) induced TNF release from RAW 264.7 cells, apparent EC50 in experiment [1] turned out to be 7.5 µg/mL.

Regarding “Recombinant full length human HMGB1 (wild type HMGB1) (from UniProt A9RA84 1-215) (ligand)”, the maximum inhibition of HMG-1 signaling (TNF release from RAW 264.7 cells) by anti-RAGE antibody in experiment [2] was 40%. For the same substance, in experiment [3], the total counts obtained in the absence of unlabeled HMGB1 proteins (CPM/well) amounted to 2.38e+06 CPM/well.
